In experiment [1] the target is MART1 comPACT (UniProt P61769). Put plainly: replicate of PE/APC comPACT tetramer dual staining, FACS.
The target of experiment [2] is MART1 comPACT (UniProt P61769). Kind of experiment: PE/APC comPACT tetramer dual staining, FACS.
Experiment [3] has as its target MART1 comPACT (UniProt P61769). Kind of experiment: dual staining with tetramer, trimer+DNA, dextramer and dextramer+DNA, FACS.

UniProt P61769, sequence (P61769 21-119): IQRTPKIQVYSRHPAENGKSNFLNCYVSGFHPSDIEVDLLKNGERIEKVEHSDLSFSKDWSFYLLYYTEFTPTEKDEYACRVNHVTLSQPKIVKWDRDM

Turning to TCR against a MART1 antigen (F5), the tetramer staining (% of T cells) in the experiment with MART1 comPACT [1] and with MART1 comPACT [2] was > 99% each time. Besides, the % of gene edited cells stained with MART1 comPACT [3] was > 98%.
